Target: T1, transglutaminase 3 (human, UniProt Q08188 2-693, limits assumed)
T1 sequence (looked up): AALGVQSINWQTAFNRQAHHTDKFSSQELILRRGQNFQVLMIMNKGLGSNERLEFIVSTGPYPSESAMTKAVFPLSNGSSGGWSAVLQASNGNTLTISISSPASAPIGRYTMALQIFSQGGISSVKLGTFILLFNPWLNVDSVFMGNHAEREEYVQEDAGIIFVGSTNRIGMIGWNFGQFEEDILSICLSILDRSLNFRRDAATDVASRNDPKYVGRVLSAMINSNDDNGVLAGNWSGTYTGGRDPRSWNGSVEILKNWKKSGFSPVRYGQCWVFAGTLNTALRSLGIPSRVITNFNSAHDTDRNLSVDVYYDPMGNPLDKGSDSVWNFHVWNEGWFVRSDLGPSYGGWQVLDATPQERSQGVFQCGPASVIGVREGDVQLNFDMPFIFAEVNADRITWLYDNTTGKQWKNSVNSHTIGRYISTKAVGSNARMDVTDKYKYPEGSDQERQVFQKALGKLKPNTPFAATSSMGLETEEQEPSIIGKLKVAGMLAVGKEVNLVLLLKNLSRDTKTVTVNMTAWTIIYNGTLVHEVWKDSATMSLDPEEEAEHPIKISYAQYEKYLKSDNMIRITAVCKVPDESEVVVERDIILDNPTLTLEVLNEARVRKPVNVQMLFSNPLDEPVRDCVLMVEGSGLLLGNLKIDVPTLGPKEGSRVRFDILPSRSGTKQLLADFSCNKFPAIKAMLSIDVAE
Assay: affinity chromatography: CLSP on CNBr-sepharose, human epidermis extract loaded with calcium chloride, eluted with EDTA, held protein sequenced
Description: The coupling efficiency was 0.95 mg of polypeptide per milliliter of balls. Human epidermis (0.83 g of abdominal skin obtained from plastic surgery and 100 g of plantar stratum corneum) was homogenized with polytron in 10 ml and 120 ml respectively of 10 mmol of Hepes buffer, pH 7.4, containing 150 mmol of sodium chloride, 0.1% (weight/volume) of triton X100 and a mixture of protease inhibitors (Complete™ EDTA-free of Roche Molecular diluted with […] of depepstatin).
The suspension is then centrifuged at 10,000 g for 10 minutes at 4° C. The supernatant is filtered at 0.22 and adjusted with 2.5 mmol of calcium chloride before passing at ambient temperature through the affinity column. The columns are then washed with 10 volumes of 10 mmol Hepes buffer, pH 7.4, containing 150 mmol of sodium chloride, 0.1% (weight/volume) of triton X100 and a mixture of protease inhibitors. The elution is carried out by using the same buffer that contains 5 mmol of EDTA instead of 2 mmol of calcium chloride.
The eluted proteins are subjected to a denaturing gel electrophoresis (SDS-PAGE) and after migration, they are colored with silver with a silver coloration kit of the Amersham Pharmacia Biotech Company and according to the recommendations of the manufacturer.

binding result: binds
B1: CLSP (calmodulin-like skin protein), the polypeptide of the invention (other)
chain: AGELTPEEEAQYKKAFSAVDTDGNGTINAQELGAALKATGKNLSEAQLRKLISEVDSDGDGEISFQEFLTAARKARAGLEDLQVAFRAFDQDGDGHITVDELRRAMAGLGQPLPQEELDAMIREADVDQDGRVNYEEFARMLAQE
notes: also called skin protein similar to calmodulin

From patent US20060009380A1 (L OREAL, published 2006)
